Measured values published in patent publication US20090246142A1, “Triggered Self-Assembly of Nanoparticles In Vivo” (MASSACHUSETTS INSTITUTE OF TECHNOLOGY, priority 2006, published 2009).
Square brackets hold non-standard residues; d marks the D form. pY = N[C@@H](Cc1ccc(OP(=O)(O)O)cc1)C(=O)O; Ahx = NCCCCCC(=O)O

What was measured:
Abl kinase = experiment: Kinase-directed TSAC assembly, MRI T2 mapping; format: biochemical; details: free phosphopeptide added to Abl kinase-assembled TSACs
Procedure: Kinase reaction was initiated by adding indicated amount of Abl kinase (New England Biolabs). TSAC assemblies were characterized by DLS over time or MRI.
All TSAC solutions were prepared in final concentration of 10 μg Fe/ml (12 nM TSAC concentration) in 70 μl of kinase reaction buffer. TSAC mixtures were incubated at 30° C. for 3 hours after kinase additions (0, 0.05, 0.1, 0.2, 0.5 U/μl), and then MRI images were taken using a 4.7 T Bruker magnet (7 cm bore) using T2-mapping Carr-Purcell-Meiboom-Gill (CPMG) pulse sequence. To reverse assembly, 4 U/μl YOP phosphatase or 0.1 mM free pY-peptide was added to an assembled TSAC solution containing 0.2 U/μl Abl kinase. The MRI image was taken after 10 minutes at room temperature.

Crk SH2 domain = molecular target: T1, Crk SH2 domain (Homo sapiens, UniProt P46108); experiment: SH2-binding peptide-mediated TSAC assembly, dynamic light scattering
T1 construct: The Crk SH2 domain was genetically modified to contain an N-terminal cysteine; GST (N, cleaved yes); made in house; host or cells: E. coli BL21-Gold(DE3)

Crk SH2 = Crk SH2 (Homo sapiens, UniProt P46108); details: free peptide; cited from earlier work
Crk SH2, sequence (P46108 13-118 limits assumed): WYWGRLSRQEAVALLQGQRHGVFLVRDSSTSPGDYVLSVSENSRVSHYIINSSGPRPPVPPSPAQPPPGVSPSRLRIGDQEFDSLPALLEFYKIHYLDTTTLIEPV

T1 sequence (P46108 13-118 limits assumed): as above
Abl kinase, sequence (P00521 128-379): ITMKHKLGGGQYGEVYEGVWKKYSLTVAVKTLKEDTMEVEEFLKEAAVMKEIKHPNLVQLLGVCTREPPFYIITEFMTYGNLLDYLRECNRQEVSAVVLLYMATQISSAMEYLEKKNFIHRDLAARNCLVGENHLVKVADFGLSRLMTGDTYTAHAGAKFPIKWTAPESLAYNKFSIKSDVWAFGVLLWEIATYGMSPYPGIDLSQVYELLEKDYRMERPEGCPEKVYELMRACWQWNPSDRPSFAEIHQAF

| Substance | effect of free substrate on kinase-directed T2 enhancement (Abl kinase) | reversal of pY TSAC / SH2 TSAC assembly by added free peptide (Crk SH2 domain; 200 μM free peptide added after 10 minute incubation) | effect of free peptide on pY TSAC / SH2 TSAC assembly (Crk SH2 domain; 200 μM free peptide present) | binding affinity to Crk SH2 (Crk SH2) |
| --- | --- | --- | --- | --- |
| TAMRA-(Ahx)SRVGEEEHVpYSFPNKQKSAEC-CONH2 [free pY-Abl substrate] | lost | – | – | – |
| TAMRA-C(Ahx)QpYDHPNI-CONH2 ({TAMRA}-C[Ahx]Q[pY]DHPNI-NH2; not fully specified) [free pY peptide] | – | rapidly disassembled | inhibited | low μM |
